Assay results taken from paper PMC8246987.

Target: T1, DJ‐1 (human (endogenous in HEK‐293)), Q99497
T1 chain: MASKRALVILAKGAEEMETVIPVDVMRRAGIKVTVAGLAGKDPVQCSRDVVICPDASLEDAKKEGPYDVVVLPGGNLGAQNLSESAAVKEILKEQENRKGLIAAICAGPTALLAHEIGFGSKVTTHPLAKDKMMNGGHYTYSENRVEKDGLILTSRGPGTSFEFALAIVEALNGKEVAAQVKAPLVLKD
Experiment: cross-linking
Settings: remark: other sources report otherwise

B1: DJ‐1, Q99497 1-189 (natural protein)
chain: MASKRALVILAKGAEEMETVIPVDVMRRAGIKVTVAGLAGKDPVQCSRDVVICPDASLEDAKKEGPYDVVVLPGGNLGAQNLSESAAVKEILKEQENRKGLIAAICAGPTALLAHEIGFGSKVTTHPLAKDKMMNGGHYTYSENRVEKDGLILTSRGPGTSFEFALAIVEALNGKEVAAQVKAPLVLKD
B1 showed a stoichiometry N of 2.
